Data taken from PMC3288073, “Aptamers as a Sensitive Tool to Detect Subtle Modifications in Therapeutic Proteins”.

B1: Aptamer 30-14 (structured_DNA)
DNA: AGATGCCTGTCGAGCATGCTGTTGTGGTAGGGTTAGGGATGGTAGCGGTTGTAGCTAAACTGCTTTGTCGACGG
B2: Aptamer 30-8 (structured_DNA)
DNA: AGATGCCTGTCGAGCATGCTGTGAATAGGTAGGGTCGGATGGGCTACGGTGTAGCTAAACTGCTTTGTCGACGGG

What was measured:
[1] = biological target: thrombin (Recothrom), recombinant human (Homo sapiens, UniProt P00734;P00734 315-363;364-622); test: ELISA (apparent Kd); 1 mM Mg2+; ELISA: 25 mM Tris, 10 mM NaCl, 1 mM MgCl2, pH 7.4, RT, 1 h; aptamers heated 95 C 10 min and refolded at RT 20 min; Kd unit (nM) from Results text. BLI: Octet RE
[2] = biological target: thrombin (Thrombin JMI), bovine plasma (Bos taurus, UniProt P00735;P00735 318-366;367-625); test: ELISA; 1 mM Mg2+; ELISA: 25 mM Tris, 10 mM NaCl, 1 mM MgCl2, pH 7.4, RT, 1 h; aptamers heated 95 C 10 min and refolded at RT 20 min; Kd unit (nM) from Results text. BLI: Octet RE; details: protein: native; copies: 1;1

Binder | Kd [1] [nM] | binding result [2]
B1 | 2.75 | no binding
B2 | 0.58 | no binding
ACCCGTGGTAGGGTAGGATGGGGTGGT (structured_DNA) [Aptamer 30-38/27] | 1.28 | no binding
GGTTGGTGTGGTTGG (structured_DNA) [Aptamer G15D] | 1.48 | 
CAGTCCGTGGTAGGGCAGGTTGGGGTGACTTCGTGGAA (structured_DNA) [Aptamer 60-18/38] | 1.48 | no binding
TACCGTGGTAGGGAAGGTTGGAGTGTA (structured_DNA) [Aptamer 30-16/27] | 1.54 | no binding
